The data set relates to HEK293T. Briefly: plasma membrane surface immunostaining intensity (anti-HA, deep receptor scanning) (arbitrary fluorescence units); higher = higher plasma membrane expression.

From the supplement of paper PMC12458215 come the findings set out here.

± gives the uncertainty stated by the source.

As to “MSGENVTRVGTFILVGFPTAPGLQYLLFLLFLLTYLFVLVENLAIILTVWSSTSLHRPMYYFLSSMSFLEIWYVSDITPKMLEGFLLQQKRISFVGCMTQLYFFSSLVCTECVLLASMAYDRYVAICHPLRYHVLVTPGLCLQLVGFSFVSGFTISMIKVCFISSVTFCGSNVLNHFFCDISPILKLACTDFSTAELVDFILAFIILVFPLLATMLSYAHITLAVLRIPSATGCWRAFFTCASHLTVVTVFYTALLFMYVRPQAIDSRSSNKLISVLYTVITPILNPLIYCLRNKEFKNALKKAFGLTSCAVEGRLSSLLELHLQIHSQPL [OR6B3]”, the “plasma membrane surface immunostaining intensity” value (GPCR class: A (Olfactory)) was 115 ± 11. As for “MSGESMNFSDVFDSSEDYFVSVNTSYYSVDSEMLLCSLQEVRQFSRLFVPIAYSLICVFGLLGNILVVITFAFYKKARSMTDVYLLNMAIADILFVLTLPFWAVSHATGAWVFSNATCKLLKGIYAINFNCGMLLLTCISMDRYIAIVQATKSFRLRSRTLPRSKIICLVVWGLSVIISSSTFVFNQKYNTQGSDVCEPKYQTVSEPIRWKLLMLGLELLFGFFIPLMFMIFCYTFIVKTLVQAQNSKRHKAIRVIIAVVLVFLACQIPHNMVLLVTAANLGKMNRSCQSEKLIGYTKTVTEVLAFLHCCLNPVLYAFIGQKFRNYFLKILKDLWCVRRKYKSSGFSCAGRYSENISRQTSETADNDNASSFTM [CCR6]”, the “plasma membrane surface immunostaining intensity” value (GPCR class: A) stood at 418 ± 33. Still for that read-out and setting: the result for “MSGTKLEDSPPCRNWSSASELNETQEPFLNPTDYDDEEFLRYLWREYLHPKEYEWVLIAGYIIVFVVALIGNVLVCVAVWKNHHMRTVTNYFIVNLSLADVLVTITCLPATLVVDITETWFFGQSLCKVIPYLQTVSVSVSVLTLSCIALDRWYAICHPLMFKSTAKRARNSIVIIWIVSCIIMIPQAIVMECSTVFPGLANKTTLFTVCDERWGGEIYPKMYHICFFLVTYMAPLCLMVLAYLQIFRKLWCRQIPGTSSVVQRKWKPLQPVSQPRGPGQPTKSRMSAVAAEIKQIRARRKTARMLMIVLLVFAICYLPISILNVLKRVFGMFAHTEDRETVYAWFTFSHWLVYANSAANPIIYNFLSGKFREEFKAAFSCCCLGVHHRQEDRLTRGRTSTESRKSLTTQISNFDNISKLSEQVVLTSISTLPAANGAGPLQNW [HCRTR2]” reads 5620 ± 490. For the sequence “MSGTNQSSVSEFLLLGLSRQPQQQHLLFVFFLSMYLATVLGNLLIILSVSIDSCLHTPMYFFLSNLSFVDICFSFTTVPKMLANHILETQTISFCGCLTQMYFVFMFVDMDNFLLAVMAYDHFVAVCHPLHYTAKMTHQLCALLVAGLWVVANLNVLLHTLLMAPLSFCADNAITHFFCDVTPLLKLSCSDTHLNEVIILSEGALVMITPFLCILASYMHITCTVLKVPSTKGRWKAFSTCGSHLAVVLLFYSTIIAVYFNPLSSHSAEKDTMATVLYTVVTPMLNPFIYSLRNRYLKGALKKVVGRVVFSV [OR1F1]”, the “plasma membrane surface immunostaining intensity” value (GPCR class: A (Olfactory)) came out at 278 ± 120.

For the sequence “MSIMMLPMEQKIQWVPTSLQDITAVLGTEAYTEEDKSMVSHAQKSQHSCLSHSRWLRSPQVTGGSWDLRIRPSKDSSSFRQAQCLRKDPGANNHLESQGVRGTAGDADRELRGPSEKATAGQPRVTLLPTPHVSGLSQEFESHWPEIAERSPCVAGVIPVIYYSVLLGLGLPVSLLTAVALARLATRTRRPSYYYLLALTASDIIIQVVIVFAGFLLQGAVLARQVPQAVVRTANILEFAANHASVWIAILLTVDRYTALCHPLHHRAASSPGRTRRAIAAVLSAALLTGIPFYWWLDMWRDTDSPRTLDEVLKWAHCLTVYFIPCGVFLVTNSAIIHRLRRRGRSGLQPRVGKSTAILLGITTLFTLLWAPRVFVMLYHMYVAPVHRDWRVHLALDVANMVAMLHTAANFGLYCFVSKTFRATVRQVIHDAYLPCTLASQPEGMAAKPVMEPPGLPTGAEV [GPR142]”, the “plasma membrane surface immunostaining intensity” value (GPCR class: A) was 165 ± 58. Consider “MSITKAWNSSSVTMFILLGFTDHPELQALLFVTFLGIYLTTLAWNLALIFLIRGDTHLHTPMYFFLSNLSFIDICYSSAVAPNMLTDFFWEQKTISFVGCAAQFFFFVGMGLSECLLLTAMAYDRYAAISSPLLYPTIMTQGLCTRMVVGAYVGGFLSSLIQASSIFRLHFCGPNIINHFFCDLPPVLALSCSDTFLSQVVNFLVVVTVGGTSFLQLLISYGYIVSAVLKIPSAEGRWKACNTCASHLMVVTLLFGTALFVYLRPSSSYLLGRDKVVSVFYSLVIPMLNPLIYSLRNKEIKDALWKVLERKKVFS [OR5A1]”, for which, where the note is “GPCR class: A (Olfactory)”, the “plasma membrane surface immunostaining intensity” value was 122 ± 20.

Regarding “MSLFLSNLSTNDSSLWKENHNSTDLLNPPGTLNIYLFCLTCLMTFAALVGSIYSLISLLKMQNRTVVSMLVASWSVDDLMSVLSVTIFMFLQWPNEVPGYFQFLCTTSALMYLCQGLSSNLKATLLVSYNFYTMHRGVGSQTASRRSGQVLGVVLTVWAASLLLSALPLCGWGAFVRTPWGCLVDCSSSYVLFLSIVYALAFGLLVGLSVPLTHRLLCSEEPPRLHSNYQEISRGASIPGTPPTAGRVVSLSPEDAPGPSLRRSGGCSPSSDTVFGPGAPAAAGAEACRRENRGTLYGTRSFTVSVAQKRFALILALTKVVLWLPMMMHMVVQNVVGFQSLPLETFSFLLTLLATTVTPVFVLSKRWTHLPCGCIINCRQNAYAVASDGKKIKRKGFEFNLSFQKSYGIYKIAHEDYYDDDENSIFYHNLMNSECETTKDPQRDNRNIFNAIKVEISTTPSLDSSTQRGINKCTNTDITEAKQDSNNKKDAFSDKTGGDINYEETTFSEGPERRLSHEESQKPDLSDWEWCRSKSERTPRQRSGYALAIPLCAFQGTVSLHAPTGKTLSLSTYEVSAEGQKITPASKKIEVYRSKSVGHEPNSEDSSSTFVDTSVKIHLEVLEICDNEEALDTVSIISNISQSSTQVRSPSLRYSRKENRFVSCDLGETASYSLFLPTSNPDGDINISIPDTVEAHRQNSKRQHQERDGYQEEIQLLNKAYRKREEESKGS [GPR149]”, for the setting “GPCR class: A”, the “plasma membrane surface immunostaining intensity” value was 1060 ± 320. Turning to “MSNASLLTAFILMGLPHAPALDAPLFGVFLVVYVLTVLGNLLILLVIRVDSHLHTTMYYFLTNLSFIDMWFSTVTVPKLLMTLVFPSGRAISFHSCMAQLYFFHFLGGTECFLYRVMSCDRYLAISYPLRYTSMMTGRSCTLLATSTWLSGSLHSAVQAILTFHLPYCGPNWIQHYLCDAPPILKLACADTSAIETVIFVTVGIVASGCFVLIVLSYVSIVCSILRIRTSEGKHRAFQTCASHCIVVLCFFGPGLFIYLRPGSRKAVDGVVAVFYTVLTPLLNPVVYTLRNKEVKKALLKLKDKVAHSQSK [OR10G8]”, the “plasma membrane surface immunostaining intensity” value (GPCR class: A (Olfactory)) came to 114 ± 4.5. Still for that read-out and setting: the result for “MSNATLLTAFILTGLPHAPGLDAPLFGIFLVVYVLTVLGNLLILLVIRVDSHLHTPMYYFLTNLSFIDMWFSTVTVPKMLMTLVSPSGRTISFHSCVAQLYFFHFLGSTECFLYTVMSYDRYLAISYPLRYTNMMTGRSCALLATGTWLSGSLHSAVQTILTFHLPYCGPNQIQHYFCDAPPILKLACADTSANEMVIFVNIGLVASGCFVLIVLSYVSIVCSILRIRTSEGRHRAFQTCASHCIVVLCFFGPGLFIYLRPGSRDALHGVVAVFYTTLTPLFNPVVYTLRNKEVKKALLKLKNGSVFAQGE [OR10G7]” reads 315 ± 110.

In the case of “MSNITDPQMWDFDDLNFTGMPPADEDYSPCMLETETLNKYVVIIAYALVFLLSLLGNSLVMLVILYSRVGRSVTDVYLLNLALADLLFALTLPIWAASKVNGWIFGTFLCKVVSLLKEVNFYSGILLLACISVDRYLAIVHATRTLTQKRHLVKFVCLGCWGLSMNLSLPFFLFRQAYHPNNSSPVCYEVLGNDTAKWRMVLRILPHTFGFIVPLFVMLFCYGFTLRTLFKAHMGQKHRAMRVIFAVVLIFLLCWLPYNLVLLADTLMRTQVIQESCERRNNIGRALDATEILGFLHSCLNPIIYAFIGQNFRHGFLKILAMHGLVSKEFLARHRVTSYTSSSVNVSSNL [CXCR1]”, the “plasma membrane surface immunostaining intensity” value (GPCR class: A) is 5900 ± 170. On the same count and under the same terms, the result for “MSPCGPLNLSLAGEATTCAAPWVPNTSAVPPSGASPALPIFSMTLGAVSNLLALALLAQAAGRLRRRRSAATFLLFVASLLATDLAGHVIPGALVLRLYTAGRAPAGGACHFLGGCMVFFGLCPLLLGCGMAVERCVGVTRPLLHAARVSVARARLALAAVAAVALAVALLPLARVGRYELQYPGTWCFIGLGPPGGWRQALLAGLFASLGLVALLAALVCNTLSGLALLRARWRRRSRRPPPASGPDSRRRWGAHGPRSASASSASSIASASTFFGGSRSSGSARRARAHDVEMVGQLVGIMVVSCICWSPMLVLVALAVGGWSSTSLQRPLFLAVRLASWNQILDPWVYILLRQAVLRQLLRLLPPRAGAKGGPAGLGLTPSAWEASSLRSSRHSGLSHF [PTGER1]” reads 1460 ± 250. Turning to “MSQVTNTTQEGIYFILTDIPGFEASHIWISIPVCCLYTISIMGNTTILTVIRTEPSVHQRMYLFLSMLALTDLGLTLTTLPTVMQLLWFNVRRISSEACFAQFFFLHGFSFMESSVLLAMSVDCYVAICCPLHYASILTNEVIGRTGLAIICCCVLAVLPSLFLLKRLPFCHSHLLSRSYCLHQDMIRLVCADIRLNSWYGFALALLIIIVDPLLIVISYTLILKNILGTATWAERLRALNNCLSHILAVLVLYIPMVGVSMTHRFAKHASPLVHVIMANIYLLAPPVMNPIIYSVKNKQIQWGMLNFLSLKNMHSR [OR51Q1]”, under “GPCR class: A (Olfactory)”, the “plasma membrane surface immunostaining intensity” value worked out at 152 ± 70.

Regarding “MSSNSSLLVAVQLCYANVNGSCVKIPFSPGSRVILYIVFGFGAVLAVFGNLLVMISILHFKQLHSPTNFLVASLACADFLVGVTVMPFSMVRTVESCWYFGRSFCTFHTCCDVAFCYSSLFHLCFISIDRYIAVTDPLVYPTKFTVSVSGICISVSWILPLMYSGAVFYTGVYDDGLEELSDALNCIGGCQTVVNQNWVLTDFLSFFIPTFIMIILYGNIFLVARRQAKKIENTGSKTESSSESYKARVARRERKAAKTLGVTVVAFMISWLPYSIDSLIDAFMGFITPACIYEICCWCAYYNSAMNPLIYALFYPWFRKAIKVIVTGQVLKNSSATMNLFSEHI [TAAR6]”, the “plasma membrane surface immunostaining intensity” value (GPCR class: A) was found to be 175 ± 65. Same read-out and setting: the result for “MSVCYRPPGNETLLSWKTSRATGTAFLLLAALLGLPGNGFVVWSLAGWRPARGRPLAATLVLHLALADGAVLLLTPLFVAFLTRQAWPLGQAGCKAVYYVCALSMYASVLLTGLLSLQRCLAVTRPFLAPRLRSPALARRLLLAVWLAALLLAVPAAVYRHLWRDRVCQLCHPSPVHAAAHLSLETLTAFVLPFGLMLGCYSVTLARLRGARWGSGRHGARVGRLVSAIVLAFGLLWAPYHAVNLLQAVAALAPPEGALAKLGGAGQAARAGTTALAFFSSSVNPVLYVFTAGDLLPRAGPRFLTRLFEGSGEARGGGRSREGTMELRTTPQLKVVGQGRGNGDPGGGMEKDGPEWDL [LTB4R2]” reads 4310 ± 330. In the case of “MSYFYRLKLMKEAVLVKLPFTSLPLLLQTLSRKSRDMEIKNYSSSTSGFILLGLSSNPQLQKPLFAIFLIMYLLAAVGNVLIIPAIYSDPRLHTPMYFFLSNLSFMDICFTTVIVPKMLVNFLSETKVISYVGCLAQMYFFMAFGNTDSYLLASMAIDRLVAICNPLHYDVVMKPRHCLLMLLGSCSISHLHSLFRVLLMSRLSFCASHIIKHFFCDTQPVLKLSCSDTSSSQMVVMTETLAVIVTPFLCIIFSYLRIMVTVLRIPSAAGKWKAFSTCGSHLTAVALFYGSIIYVYFRPLSMYSVVRDRVATVMYTVVTPMLNPFIYSLRNKDMKRGLKKLQDRIYR [OR1L6]”, the “plasma membrane surface immunostaining intensity” value (GPCR class: A (Olfactory)) amounted to 247 ± 87. “MTAAIRRQRELSILPKVTLEAMNTTVMQGFNRSERCPRDTRIVQLVFPALYTVVFLTGILLNTLALWVFVHIPSSSTFIIYLKNTLVADLIMTLMLPFKILSDSHLAPWQLRAFVCRFSSVIFYETMYVGIVLLGLIAFDRFLKIIRPLRNIFLKKPVFAKTVSIFIWFFLFFISLPNTILSNKEATPSSVKKCASLKGPLGLKWHQMVNNICQFIFWTVFILMLVFYVVIAKKVYDSYRKSKSKDRKNNKKLEGKVFVVVAVFFVCFAPFHFARVPYTHSQTNNKTDCRLQNQLFIAKETTLFLAATNICMDPLIYIFLCKKFTEKLPCMQGRKTTASSQENHSSQTDNITLG [P2RY13]”: the “plasma membrane surface immunostaining intensity” value (GPCR class: A) was 239 ± 12.
